One block for each binder: values may come before it.
Target: T1, ectodomain of murine βKlotho (F53 to L995 of SEQ ID NO: 218) with a C-terminal FLAG tag (UniProt Q99N32 53-995)
T1 chain: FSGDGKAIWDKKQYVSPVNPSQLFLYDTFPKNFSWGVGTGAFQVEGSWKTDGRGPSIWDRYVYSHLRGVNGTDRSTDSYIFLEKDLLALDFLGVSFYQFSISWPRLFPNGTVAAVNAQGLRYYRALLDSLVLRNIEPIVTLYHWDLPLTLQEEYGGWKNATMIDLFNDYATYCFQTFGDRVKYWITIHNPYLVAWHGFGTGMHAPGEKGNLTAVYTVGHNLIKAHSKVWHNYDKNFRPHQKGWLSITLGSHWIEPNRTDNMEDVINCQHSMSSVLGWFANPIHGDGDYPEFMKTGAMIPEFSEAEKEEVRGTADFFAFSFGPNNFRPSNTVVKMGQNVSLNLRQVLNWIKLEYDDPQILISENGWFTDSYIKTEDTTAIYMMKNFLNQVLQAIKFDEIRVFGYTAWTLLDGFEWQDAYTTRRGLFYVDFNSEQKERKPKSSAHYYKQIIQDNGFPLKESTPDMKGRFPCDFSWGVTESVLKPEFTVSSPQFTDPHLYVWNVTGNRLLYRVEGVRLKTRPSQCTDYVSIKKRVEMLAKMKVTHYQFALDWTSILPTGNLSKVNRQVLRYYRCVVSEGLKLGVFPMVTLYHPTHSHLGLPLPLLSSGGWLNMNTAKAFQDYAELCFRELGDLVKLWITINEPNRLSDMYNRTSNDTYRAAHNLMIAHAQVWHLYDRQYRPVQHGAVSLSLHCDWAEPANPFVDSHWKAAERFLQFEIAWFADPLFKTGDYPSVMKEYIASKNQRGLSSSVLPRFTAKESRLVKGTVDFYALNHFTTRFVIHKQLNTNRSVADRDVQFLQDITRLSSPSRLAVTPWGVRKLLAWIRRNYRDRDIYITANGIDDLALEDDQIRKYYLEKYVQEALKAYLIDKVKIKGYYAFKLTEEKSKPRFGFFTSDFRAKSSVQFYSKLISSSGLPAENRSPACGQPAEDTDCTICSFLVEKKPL
Test: SPR

Kd: 124 nM
B1: ligand-binding domain of human FGFR1c (D142 to R365 of SEQ ID NO: 221) (receptor)
chain: DNTKPNRMPVAPYWTSPEKMEKKLHAVPAAKTVKFKCPSSGTPNPTLRWLKNGKEFKPDHRIGGYKVRYATWSIIMDSVVPSDKGNYTCIVENEYGSINHTYQLDVVERSPHRPILQAGLPANKTVALGSNVEFMCKVYSDPQPHIQWLKHIEVNGSKIGPDNLPYVQILKTAGVNTTDKEMEVLHLRNVSFEDAGEYTCLAGNSIGLSHHSAWLTVLEALEER

Kd: 170 nM
B2: ligand-binding domain of human FGFR2c (N149 to E368 of SEQ ID NO: 226) (receptor)
chain: NNKRAPYWTNTEKMEKRLHAVPAANTVKFRCPAGGNPMPTMRWLKNGKEFKQEHRIGGYKVRNQHWSLIMESVVPSDKGNYTCVVENEYGSINHTYHLDVVERSPHRPILQAGLPANASTVVGGDVEFVCKVYSDAQPHIQWIKHVEKNGSKYGPDGLPYLKVLKAAGVNTTDKEIEVLYIRNVTFEDAGEYTCLAGNSIGISFHSAWLTVLPAPGREKE

From US20130231277A1 (published 2013)
